What was measured:
SEC = molecular target: the molecule itself; experiment: SEC
cryo-EM structure = molecular target: the molecule itself; experiment: cryo-EM structure

B1: M. tuberculosis EspB (residues 2-358), mature form (domain or fragment)
chain: TQSQTVTVDQQEILNRANEVEAPMADPPTDVPITPCELTAAKNAAQQLVLSADNMREYLAAGAKERQRLATSLRNAAKAYGEVDEEAATALDNDGEGTVQAESAGAVGGDSSAELTDTPRVATAGEPNFMDLKEAARKLETGDQGASLAHFADGWNTFNLTLQGDVKRFRGFDNWEGDAATACEASLDQQRQWILHMAKLSAAMAKQAQYVAQLHVWARREHPTYEDIVGLERLYAENPSARDQILPVYAEYQQRSEKVLTEYNNKAALEPVNPPKPPPAIKIDPPPPPQEQGLIPGFLMPPSDGSGVTPGTGMPAAPMVPPTGSPGGGLPADTAAQLTSAGREAAALSGDVAVKAA
binding result (SEC): binds

B2: M. tuberculosis EspB2-287 (domain or fragment)
chain: TQSQTVTVDQQEILNRANEVEAPMADPPTDVPITPCELTAAKNAAQQLVLSADNMREYLAAGAKERQRLATSLRNAAKAYGEVDEEAATALDNDGEGTVQAESAGAVGGDSSAELTDTPRVATAGEPNFMDLKEAARKLETGDQGASLAHFADGWNTFNLTLQGDVKRFRGFDNWEGDAATACEASLDQQRQWILHMAKLSAAMAKQAQYVAQLHVWARREHPTYEDIVGLERLYAENPSARDQILPVYAEYQQRSEKVLTEYNNKAALEPVNPPKPPPAIKIDPP
stoichiometry N (cryo-EM structure): 7

B3: M. marinum EspB2-286 (domain or fragment)
chain: SQPQTVTVDQQEILNRADEVEAPMATPPTDVPQAPSGLTAANNAAEQLAVSADNVRLYLQAGERERQRLATSLRNAAAAYGEVEDESATALDNDGNGEVDAQSAGGAGAGQTESLEETPKVAAAGESDFTDLKTAATKLESGDQGTSMVNFADGWNNFNLSLQRDIKRFRIFENWEGDAATACEASMDQQKEWILHMAKLSASLAKQANFMAQLQLWARRGHPTLADIVELERLAKDPDYQEQAIKLYAEYQETSEKVLSEYNTKADLEPVNPPKPPAAIKIDPP
stoichiometry N (cryo-EM structure): 7

Reference: publication PMC8313811 (Current Research in Structural Biology, 2021)
